Laboratory results published in publication doi:10.1101/2024.06.21.600001.

Target: EBOV GP ectodomain, mucin-like domain deleted (EBOV GP[change] ectodomain), Mayinga, residues 33-651, double Strep-tag (Zaire ebolavirus (EBOV), Mayinga) (UniProt Q05320)
Assay: cryo-EM structure

Substance: EBOV GP ectodomain, mucin-like domain deleted (EBOV GP[change] ectodomain), Mayinga, residues 33-651, double Strep-tag (from UniProt Q05320 33-651) (domain or fragment)
- stoichiometry N: 3
